Values quoted from earlier work in paper PMC10866363.

Biological target: Trigger factor (Escherichia coli) (UniProt P0A850)

Sequence of Trigger factor (P0A850 whole entry): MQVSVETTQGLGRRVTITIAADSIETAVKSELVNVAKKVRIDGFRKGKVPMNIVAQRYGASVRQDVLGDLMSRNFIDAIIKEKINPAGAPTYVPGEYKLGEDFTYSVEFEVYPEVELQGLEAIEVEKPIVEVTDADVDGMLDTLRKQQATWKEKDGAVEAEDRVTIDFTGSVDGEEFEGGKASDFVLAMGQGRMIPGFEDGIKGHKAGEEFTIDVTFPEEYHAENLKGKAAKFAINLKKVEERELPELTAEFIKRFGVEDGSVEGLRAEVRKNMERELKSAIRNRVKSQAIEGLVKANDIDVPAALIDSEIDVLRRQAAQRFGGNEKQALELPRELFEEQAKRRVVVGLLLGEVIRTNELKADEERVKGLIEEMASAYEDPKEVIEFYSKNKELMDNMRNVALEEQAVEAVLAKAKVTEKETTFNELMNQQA

Q: For Trigger factor (from UniProt P0A850), which Kd is on record?
A: 2000 nM
